The values below come from paper PMC6692446, “Characterization of H/D exchange in type 1 pili by proton-detected solid-state NMR and molecular dynamics simulations” (Journal of Biomolecular Nmr, 2019).

The data set concerns the molecule itself. The data set is described as follows: H/D exchange followed by proton-detected solid-state NMR; pre-assembled reprotonated pili washed four times with 100% D2O buffer (10 mM sodium phosphate pH 7.0, 0.02% sodium azide), each with 4 h at room temperature; peak volumes of 3D (H)CANH spectra of redeuterated and reprotonated pili compared; 40 kHz MAS, 16.4 T, 17 °C; protection assigned to intra- or intermolecular contacts on the cryo-EM structure PDB 5OH0.

B1: FimA, type 1 pilus rod subunit (recombinant, assembled in vitro into type 1 pili) (natural protein, Escherichia coli, UniProt P04128 24-182, looked up)
chain: AATTVNGGTVHFKGEVVNAACAVDAGSVDQTVQLGQVRTASLAQEGATSSAVGFNIQLNDCDTNVASKAAVAFLGTAIDAGHTNVLALQSSAAGSATNVGVQILDRTGAALTLDGATFSSETTLNNGTNTIPFQARYFATGAATPGAANADATFKVQYQ
notes: FimA, major subunit of the type 1 pilus rod of Escherichia coli; Uniformly [2H,13C,15N]-labelled, proton back-exchanged at labile sites; Intramolecular disulfide Cys21-Cys61; In the pilus each subunit's N-terminal donor strand complements the neighbouring subunit; also called polymerized FimA; reprotonated pili
As for B1, the binding result is reported as “binds”.
